What was measured:
Assay in all cases: EMSA
Conditions in all cases: 10 mM Tris pH 7.5, 100 mM KCl (Fig. 3 legend; not in Methods), 1 mM DTT, 2.5% glycerol, 20 mM MgCl2, 500 ng poly(dI-dC), 0.05% NP-40; 30 nM DNA; 10 min room …
[1] = target: T1, His-GlnR (Mycobacterium smegmatis mc2 155) (UniProt A0R4C4)
T1 sequence: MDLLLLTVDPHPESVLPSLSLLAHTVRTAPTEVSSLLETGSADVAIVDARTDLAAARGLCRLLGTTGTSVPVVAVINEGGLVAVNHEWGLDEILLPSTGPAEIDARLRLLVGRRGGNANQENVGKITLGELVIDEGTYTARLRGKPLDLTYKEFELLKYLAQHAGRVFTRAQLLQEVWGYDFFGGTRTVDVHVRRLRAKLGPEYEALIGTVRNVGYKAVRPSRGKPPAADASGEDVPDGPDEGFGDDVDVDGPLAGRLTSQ

[2] = target: T2, MBP-NnaR (Mycobacterium smegmatis mc2 155) (UniProt A0QPK7)
T2 sequence: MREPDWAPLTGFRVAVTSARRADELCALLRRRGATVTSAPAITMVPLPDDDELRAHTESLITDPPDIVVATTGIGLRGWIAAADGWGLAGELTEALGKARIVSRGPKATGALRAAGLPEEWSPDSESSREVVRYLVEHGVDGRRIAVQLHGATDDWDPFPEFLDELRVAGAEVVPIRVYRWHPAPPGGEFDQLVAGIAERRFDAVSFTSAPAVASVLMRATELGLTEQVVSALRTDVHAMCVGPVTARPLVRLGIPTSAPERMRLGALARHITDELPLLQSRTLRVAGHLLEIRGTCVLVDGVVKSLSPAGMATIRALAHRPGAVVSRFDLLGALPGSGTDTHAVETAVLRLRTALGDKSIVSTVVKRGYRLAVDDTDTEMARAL

[3] = target: T3, MBP-NnaR;His-GlnR (Mycobacterium smegmatis mc2 155;Mycobacterium smegmatis mc2 155) (UniProt A0QPK7+A0R4C4)
T3 sequence 1: T2 sequence
T3 sequence 2: T1 sequence

GACCCCTGGTGACCGCGTAACGGCTTTCTCACAGGTGCCCGCCGATCCAGGTGAGCGGAATTTCACGGCCGGGTCATCGCGCGCAGTGTCGGGGCAATAATCGCTTTCTAGCGTGCTCGCATG (double strand) [msmeg_0433 promoter]
binding [1]: binds more weakly | binding [2]: binds

GCAGCTTGGACCACCTATTTCCACGCCATGAACGACCTCGCCCGAAAATTGATGAGCGCGTTCGCCCTCGGGTTGAGGTTGCCCGCCGACTACTTCGTCGACACCATCGA (double strand) [msmeg_4008 promoter]
binding [1]: no binding | binding [2]: no binding | binding [3]: binds

ATCTGCATCATCTCGCGACTTTGGTCAGCTGTCGCCCTGGCGCGCCGAGGCACGGCAGGTTTCGCACGCCCAGGCATCTCACAGCCGACGCTGAGCTGATGTGCGCAGATGGCAACACCGATGCATAGGTCAAGTCGCCGAACCGCAATCTGGGCGCGACACGGTCTAGGGAACTGTCCATCGGGTCCATCGGAAGGTTGCACCCAATG (double strand) [msmeg_5360 promoter]
binding [1]: no binding | binding [2]: no binding | binding [3]: binds

CATAGGGCGAGGCTAAGAACCCGATATTGCCGCGATGTCGCGCTGTGTGAAGCCCCCATCACGGTGTGCTCACGTCTTCGGCAACGCACATGTGAGGTCCCCGACCGGTGAGCTCTCCGGACCACAGTCAGGCCACAACCGCC (double strand) [msmeg_0427 promoter]
binding [2]: binds

CGTGTGGCCCTTTCGTTCGATCCCGAGCACAGAGATTAACTGTACTGACCACGCAAGGCGAGACGTCGGCACTCGTGACGTCCTCACACGGTTTTCACAACGCACTCACAAGACATGTGAGCAGCACGTAGCGGACCCGGTACGCCTGGGCAATGGTGCGGCAACGGGGTTCTCCGACGCTGAACGCATG (double strand) [msmeg_5765 promoter]
binding [1]: binds more weakly | binding [2]: binds

Reference: publication PMC6277429
